The supplement of paper PMC9170038

Test system: MS2 coat protein
Experiment: apparent KD of MS2 coat protein; higher = weaker reporter binding
Conditions: Eterna round: R107
How it was run: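 Apparent KD stands for the median, per design, of fits to normalised cluster binding curves. The curves came from titrating on-chip-transcribed RNA switches on Illumina sequencing clusters with SNAP-549-labelled MS2 coat protein, twofold from 0.7 or 1.5 nM to 3 µM. Buffer was 100 mM Tris-HCl pH 7.5, 80 mM KCl, 4 mM MgCl2, without or with constant ligand.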

[1] = input ligand: theophylline 20 uM
[2] = input ligand: theophylline 2 mM
[3] = input ligand: tryptophan 2.4 mM

| Sequence | apparent KD of MS2 coat protein (input ligand: arginine 13.2 mM) [nM] | apparent KD of MS2 coat protein (input ligand: none) [nM] | apparent KD of MS2 coat protein [1] [nM] | apparent KD of MS2 coat protein [2] [nM] | apparent KD of MS2 coat protein [3] [nM] |
| --- | --- | --- | --- | --- | --- |
| ACAUGAGGAUCACCCAUGUGGCGACUUGAUACCAGACCCGCACUAGUCCCUUGGCAGCAACUACGUGAGGGACACCCAUGUGAAG | 17.6 | 25.8 | 41.6 | 38.2 | 21.6 |
| ACAUGAGGAUCACCCAUGUGCCGAGUUGAUACCAGACCCGCACUAGUCCCUUGGCAGCAACUACGUGUGGGACACCCAUGUUAAG [qaqmullin] | 29.1 |  | 85.5 |  | 47.9 |
| GAUAUGGAAACAUGUCAGAUCCUUACCGGUCGAGGACCGGUACGGCCGCCACUCGAAAACGAUGUACAUGAGGAUCACCCAUGUA [Ex Tryptophan A 19] | 13.7 | 14 | 16.2 | 14.7 | 21.6 |
| GGGCAAGAGGGAAGGAGCGUCAGCUGAGUCACAUGAGGAUCACCCAUGUAGCACAUAGUGUGACAGGUAGGUCGCCCUCUGCCCU [SS-ArgB5] | 11.1 | 9.19 | 14.4 | 11.4 | 11.6 |
| AAUAAGAGCUCGGAUACCAGCGAAAACAGGCACAUGAGGAUCACCCAUGUUAACGCACUGCGCCCUUGGCAGCCGCACGUGUGUC [theeternabot_sameState_MS2_Theo_B_39] | 19.6 |  | 25.4 |  | 22 |
| AUAUAUACAUGAGGAUCACCCAUGUUAUUUCGAGGACCGGUACGGCCGCCACUCGAUAGAGUAGAAGUAAAUUUUAAUUCAUGUA [JR_SSTryptoA_Sub008] | 13.9 |  | 18.7 | 16.8 |  |
| CCGGCAUGUCGAAGGAGCGUCACAUGAGGAUCACCCAUGUACAUGAGGAUCACCCAUGUGUGACAGGUAGGUCGCGGCGGCCAGG [Exclusion Arginine B GF7] | 108 | 140 | 178 | 197 | 158 |
| GAAUUUAUAUGAAGGAGCGUCGAAAAUGGGUAAACAUGAGGAUCACCCAUGUAAAGGGAACGACAGGUAGGUCGCAUAUGGAUUC [AstromonsSSArgB#26] | 114 | 175 | 196 | 219 | 197 |
| UAAACUACACAUGAGGAUCACCCAUGUGGCCGAGGACCGGUACGGCCGCCACUCGUGUGUUAAUAAAAGAACUGCAAAGUUCCUU [Aquen] | 63.1 |  | 416 | 504 |  |
| CUAUAUAUAGCGGCCGCCACUUACUCAUGAGGUAACAACAUGAGGAUCACCCAUGUUUGAGGAUCAAGGACCGGGCUAUAUAUAG [AstrosSSTryB#4] | 28.1 |  | 33.5 | 33.2 |  |
| GUUAUGGACCUGGAUACCAGCUGGUACGAGGGCGGUCUACAUGAGGAUCACCCAUGUGUCAGCCCUUGGCAGCCAGCAACCCGCU [Raquleer] | 10 | 9.39 | 12.6 | 11.9 | 9.92 |
| CGAAAGCAGUGAUCCAGCUUUCGCCUGGAAGGAGCGAGCGAAAGCUCAGGUAGGUCGCCAGAAACAUGAGGAUCACCCAUGUAAU [(A)''-(M)'-(A)'-(Arg1)-(Arg2)-(M1)-(M2)_Design8] | 36.6 | 65.4 | 82 | 145 | 75.5 |
| CUCCGAGGCUAUACUAUCCGCCUCAGUGAUACCAGAAUACCUAUAUUCCCUUGGCAGCAUCACAUGAGGAUCACCCAUGUGCCAU [SSTheo A #14] | 13.4 |  | 16.3 |  | 12.2 |
| ACAUGAGGAUCACCCAUGUGAAGCAGGGUACGAGGACCGGUACGGCCGCCACUCGAGGAUUAUGCCGAGUGAAUGGCAACGAUGU [whbob_Ex_trypto A_2s19] |  |  | 22.7 | 16.2 |  |
| CGAUGAUGAAGGGAUACCAGAAAUGGUAUUCCUUUAUUUCUUACAUGAGGAUCACCCAUGUUCCCUUGGCAGCUUUUUAUCAUCG [ETHB #6] | 49.3 |  | 82.6 |  | 64.4 |
| AUCCACAGCCGAAGGAGCGCAGUAGGAUGACAUGAGGAUCACCCAUGUGUGUGAUGUGGAUUGCAGGUAGGUCGCGGAGUGGAUU [Exclusion - Arginine B (Freestyle 9)] | 165 | 54.5 | 82 | 60.1 | 46.4 |
| ACAUUUAACUGAAGGAGCGUGAUAAACAUGAGGAUCACCCAUGUACCACAGAUUUUCAGAUCACAGGUAGGUCGCAGACUAAUGA [JR_ExcArginiB_Sub014] | 9.29 | 11.1 | 14.1 | 11.3 | 11.5 |
| GACAUUAUCUGAAGGAGCGAGGUAAAUAGGGAUGAGCAUACAUGAGGAUCACCCAUGUGGCCUCAGGUAGGUCGCAGAUGAGAUU [Exclusion Arginine B GF26] | 41.1 | 253 | 212 | 453 | 256 |
| ACCUACACGGAAACGUGUAGAAGUAAUGAUACCAGCAUGGAAACAUGCCCUUGGCAGCGUUACAUGAGGAUCACCCAUGUAUGUU [#01 Exclusion-TheophyllineA] | 16.4 |  | 19.9 |  | 15.4 |

| Sequence | apparent KD of MS2 coat protein (input ligand: arginine 13.2 mM) [nM] | apparent KD of MS2 coat protein (input ligand: none) [nM] | apparent KD of MS2 coat protein [1] [nM] | apparent KD of MS2 coat protein [2] [nM] | apparent KD of MS2 coat protein [3] [nM] |
| --- | --- | --- | --- | --- | --- |
| ACAUGAGGAUCACCCAUGUUGAACUACCAUCGAGGACCGGUACGGCCGCCACUCGCGUUCUCCUUAGCAUCAAGGUCCGCGAAAC [theeternabot_exclusion_MS2_Trp_A_1] | 10.3 |  | 15.3 | 13.6 |  |
| UGGGUACAUGAGGAUCACCCAUGUACUGAAGGAGCGAGAAAUAUCUCAGGUAGGUCGCAGACAUGAGGAUCACCCAUGUAGUAGG [Exclusion Arginine A GF 11] | 29.5 | 28.1 | 31.8 | 33.1 | 26.7 |
| GCACCAGGUACGGAUACCAGACGUUGCCAAACAGGGUGACAUGAGGAUCACCCAUGUACUGUCCCUUGGCAGCCGUACCUGGUGC [EThB NP+V+V2 #4 +-Same Structure] | 20.2 |  | 53 |  | 22.6 |
| UGGGUACAUGAGGAUCACCCAUGUACUGAAGGAGCGAGAAUUAUCUCAGGUAGGUCGCAGACAUGAGGAUCACCCAUGUAGUGGG [Exclusion Arginine A GF 13] | 15 | 18 | 22.7 | 20 | 17.7 |
| UAAUGCAGGUCGGCCGCCACUACAAACAUGAGGAUCACCCAUGUAGUUACUGGGUGAAGUGGCAGUAGGACCGGGACCUGCAUAA [Trp-Ms2-T'-M'-T''_Design1] | 102 |  | 602 | 1040 |  |
| GCGGAAUAAUCGGCCGCCACUAUGAUAUAGGAAACUAUAACAUGAGGAUCACCCAUGUAUCCUCAUAGGACCGGGAUUAAAACGC [TrypB - CS] | 39.7 |  | 121 | 101 |  |
| AAUCAUGGAAACAUGACAUGAGGGUUACUCCGAGGACCGGUACGGCCGCCACUCGCGAGGAGGCGGACAUGAGGAUCACCCAUGU [#04 Tryptophan A Same State] | 32.4 | 392 | 240 | 260 | 41.6 |
| CAGUCAGUCAGUCAAUGAGUGAGGCAUGAAGGAGCGUGGGAAACCACAGGUAGGUCGCAUGCGGAACAUGAGGAUCACCCAUGUU [SSArg A #4] | 31.9 | 27.2 | 26.2 | 26.8 | 27.7 |
| AAAUGAAGGCGAAGGAGCGGGAACAUGAGGAUCACCCAUGUGUAUGUAUGUAGUCAUGUAUCUCAGGUAGGUCGCGCUGUUACAU [Exclusion Arginine B 2] | 80 | 185 | 178 | 207 | 106 |
| UCGCUCUGGGUGAAUCCCAGAGAUAUGGAAGGAGCGGACGAAAGUCCAGGUAGGUCGCCAUCGAACAUGAGGAUCACCCAUGUAC [Same State - Arginine A (Freestyle 27)] | 62.1 | 47.6 | 57.8 | 76.6 | 76.8 |
| UAACAUGAGGAUCACCCAUGUAUACUUAGUCGAGGACCGGUACGGCCGCCACUCGUACUUCAAGAUUUGGCGGAAAAUGUAUGUA [JR_ExcTryptoA_Sub021] | 14.2 |  | 15.6 | 12.5 |  |
| ACAUGAGGGAUGGAUACCAGCGACAUGAGGAUCACCCAUGUAUGAGGAUCAGCCAUGUUAUGCCCUUGGCAGCCACGAACAUCAG [EDEMULLIN] | 27.3 |  | 45.2 |  | 29.8 |
| AAAAUAUAGACGGCCGCCACUAUAAUCAUGAGGAACAUGAGGAUCACCCAUGUAUGAGGAUCACCUAGGACCGGGUCAUAUAAAA [#24 Exclusion Tryptophan B] | 14.2 | 23.6 | 31.3 | 29.5 | 25.6 |
| GCGGAAUAAUCGGCCGCCACUAUGAGACAGGAAACUGUCACAUGAGGAUCACCCAUGUAUCCUCAUAGGACCGGGAUUAAAACGC [Melting point difference] | 76.8 |  | 109 | 100 |  |
| AUGCAUAGCGGAAGGAGCGCAAUAGAAUGACAUGAGGAUCACCCAUGUGUGUGAUGUGGGUUGCAGGUAGGUCGCCGAGUGGCAU [#11 Exclusion - Arginine B] | 77.6 | 80.9 | 95.9 | 127 | 59.1 |
| GCCAUCGGCGGAAGCCGAUGGGAUACAGAAGGAGCGCGGAUUAACGCAGGUAGGUCGCUGGACAUGAGGAUCACCCAUGUAAUAG [SSAA #9] | 19.2 | 22.8 | 41.9 | 22.5 | 18.5 |
| AGCGACAUGCGUGAUACCAGCUACAUGAGGAUCACCCAUGUACGUCAGAAAUGACUGUGUAGCCCUUGGCAGCAUAGUGCAUGUC [Exclusion - Theophylline B (Freestyle 20)] | 34.6 |  | 54.2 |  | 34.8 |
| UGCACUCAUGCGGCCGCCACUGUCGGCCGCCACUAAACAUGAGGAUCACCCAUGUAGGACCGGGACAGGACCGGGCAUGGGUGCU [TryBS - #DoubleAptamer 2] | 12.9 | 15.7 | 20.7 | 13.8 | 9.97 |
| GGCACCAGGAGAAGGAGCGUGAAGACAUGAGGAUCACCCAUGUAGAGGCCCGUACUGGGUUCGCAGGUAGGUCGCUCCUGGUGCC [#1 Same State - Arginine B Attempt #13 (HarryS)] | 22.1 | 22.9 | 39.2 | 28.7 | 29.9 |
